Reference: the supplement of paper PMC7877785
± gives the uncertainty stated by the source.

Assay: self-splicing fitness, log relative to wild type (ln ratio); higher = more splicing; Tetrahymena group I intron in knt gene, E. coli kanamycin selection, DiMSum; sequences stand for … in CUCUCU…GGAGGGAAAAGUUAUCAGGCAUGCACCUGGUAGCUAGUCUUUAAACCAAUAGAUUGCAUCGGUUUAAAAGGCAAGACCGUCAAAUUGCGGGAAAGGGGUCAACAGCCGUUCAGUACCAAGUCUCAGGGGAAACUUUGAGAUGGCCUUGCAAAGGGUAUGGUAAUAAGCUGACGGACAUGGUCCUAACCACGCAGCCAAGUCCUAAGUCAACAGAUCUUCUGUUGAUAUGGAUGCAGUUCACAGACUAAAUGUCGGUCGGGGAAGAUGUAUUCUUCUCAUAAGAUAUAGUCGGACCUCUCCUUAAUGGGAGCUAGCGGAUGAAGUGAUGCAACACUGGAGCCGCUGGGAACUAAUUUGUAUGCGAAAGUAUAUUGAUUAGUUUUGGAGUACUCGUGGUCG
Procedure, shortened: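 The eight P1ex-region nucleotides of an intron in the knt kanamycin-resistance gene on pET-22b(+) were all randomised and the library put into E. coli BL21(DE3). Six replicate transformations were grown overnight at 37°C or 30°C on LB agar with or without 25 μg/mL kanamycin, together with 100 μg/mL carbenicillin, 50 μM IPTG and 0.2% rhamnose. Colonies were pooled and amplicon-sequenced on an Illumina HiSeq 2500. Fitness from DiMSum is the error-weighted combination of wild-type-normalised replicate fold changes, kanamycin over none.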

Sequence	self-splicing fitness (ln) (30 °C)	self-splicing fitness (ln) (37 °C)
CAAAAGCAAUAUUACGUCUC	-3.38 ± 0.23	-2.15 ± 0.2
CAAAAGCAAUAUUACGUGUC	-3.51 ± 0.14	-1.41 ± 0.12
CAACAGCAAUAUUACGAGAA	-2.7 ± 0.39	-0.546 ± 0.21
CAACAGCAAUAUUACGAUGU	-2.57 ± 0.11	-1.62 ± 0.11
CAACAGCAAUAUUACGCAAG	-1.48 ± 0.07	-0.352 ± 0.085
CAACAGCAAUAUUACGCCCC		-0.283 ± 0.4
CAACAGCAAUAUUACGCGCC	-1.54 ± 0.073	-1.43 ± 0.11
CAACAGCAAUAUUACGCUAC	-4.32 ± 0.24	-2.3 ± 0.15
CAACAGCAAUAUUACGCUAU	-3.29 ± 0.17	-2.25 ± 0.13
CAACAGCAAUAUUACGGUCC	-2.56 ± 0.17	-1.22 ± 0.16
CAACAGCAAUAUUACGUACC	-2.7 ± 0.12	-0.824 ± 0.12
CAACAGCAAUAUUACGUAUC	-1.96 ± 0.16	-2.75 ± 0.18
CAACAGCAAUAUUACGUGCG	-0.886 ± 0.053	-0.129 ± 0.074
CAACAGCAAUAUUACGUGUU	-3.54 ± 0.11	-3.03 ± 0.15
CAAGAGCAAUAUUACGAAUG	-2.34 ± 0.09	-1.79 ± 0.14
CAAGAGCAAUAUUACGACAA	-0.348 ± 0.28	-1.43 ± 0.39
CAAGAGCAAUAUUACGAGCG	-0.536 ± 0.07	-0.728 ± 0.073
CAAGAGCAAUAUUACGAGCU	-2.04 ± 0.28	-2.06 ± 0.37
CAAGAGCAAUAUUACGAGUC	-2.88 ± 0.28	-0.209 ± 0.28
CAAGAGCAAUAUUACGCCAA	-3.78 ± 0.4	-2.68 ± 0.3
CAAGAGCAAUAUUACGCCGC	-2.67 ± 0.25	-1.99 ± 0.26
CAAGAGCAAUAUUACGCCGG	-2 ± 0.15	-1.35 ± 0.24
CAAGAGCAAUAUUACGCCUC	-1.95 ± 0.33	
CAAGAGCAAUAUUACGCGAG	-2.92 ± 0.2	-2.11 ± 0.21
CAAGAGCAAUAUUACGCUCC	-2.23 ± 0.44	

Sequence	self-splicing fitness (ln) (30 °C)	self-splicing fitness (ln) (37 °C)
CAAGAGCAAUAUUACGCUUA	-2.23 ± 0.17	-0.92 ± 0.15
CAAGAGCAAUAUUACGGAGG	-1.85 ± 0.083	-1.3 ± 0.13
CAAGAGCAAUAUUACGGGCC		-2.71 ± 0.31
CAAGAGCAAUAUUACGGGCU		-2.6 ± 0.34
CAAGAGCAAUAUUACGGUUA	-2.21 ± 0.15	-2.08 ± 0.18
CAAGAGCAAUAUUACGGUUG	-2.72 ± 0.12	-2.25 ± 0.18
CAAGAGCAAUAUUACGUACA	-3.1 ± 0.35	-1.89 ± 0.26
CAAGAGCAAUAUUACGUGUA	-3.48 ± 0.17	-2.42 ± 0.17
CAAUAGCAAUAUUACGAAUU	-3.51 ± 0.26	-2.23 ± 0.18
CAAUAGCAAUAUUACGACCA		-1.81 ± 0.41
CAAUAGCAAUAUUACGACCG	-0.173 ± 0.12	0.201 ± 0.18
CAAUAGCAAUAUUACGACGG	-0.109 ± 0.076	0.524 ± 0.1
CAAUAGCAAUAUUACGACUU	-3.35 ± 0.24	-0.264 ± 0.23
CAAUAGCAAUAUUACGAGAA	-3.83 ± 0.39	-2.71 ± 0.3
CAAUAGCAAUAUUACGAGGA	-2.82 ± 0.26	-2.07 ± 0.27
CAAUAGCAAUAUUACGAUAC	-3.17 ± 0.19	-2.41 ± 0.16
CAAUAGCAAUAUUACGAUCG	0.123 ± 0.069	-0.0654 ± 0.083
CAAUAGCAAUAUUACGAUUC	-3.4 ± 0.14	-1.24 ± 0.14
CAAUAGCAAUAUUACGCAUC		-2.7 ± 0.35
CAAUAGCAAUAUUACGCCGC	-2.12 ± 0.22	-2.72 ± 0.4
CAAUAGCAAUAUUACGCCGU	-3.47 ± 0.15	-1.4 ± 0.14
CAAUAGCAAUAUUACGCCUA	-2.01 ± 0.22	-1.74 ± 0.18
CAAUAGCAAUAUUACGCCUC	-3.74 ± 0.48	-2.17 ± 0.36
CAAUAGCAAUAUUACGCGAA	-3.11 ± 0.21	-1.67 ± 0.15
CAAUAGCAAUAUUACGCUGC	-3.49 ± 0.28	-1.92 ± 0.33

Sequence	self-splicing fitness (ln) (30 °C)	self-splicing fitness (ln) (37 °C)
CAAUAGCAAUAUUACGCUGU	-3.13 ± 0.17	-2.07 ± 0.15
CAAUAGCAAUAUUACGCUUG	-2.63 ± 0.14	-2.01 ± 0.16
CAAUAGCAAUAUUACGGAAU	-3.67 ± 0.35	-3.11 ± 0.33
CAAUAGCAAUAUUACGGGUG	-0.693 ± 0.068	0.0252 ± 0.091
CAAUAGCAAUAUUACGGUCA	-3.09 ± 0.18	-1.55 ± 0.12
CAAUAGCAAUAUUACGUAAG	0.0257 ± 0.049	0.121 ± 0.062
CAAUAGCAAUAUUACGUCCG	-0.215 ± 0.1	-0.267 ± 0.13
CAAUAGCAAUAUUACGUUGA	-2.59 ± 0.15	-3.59 ± 0.22
CAAUAGCAAUAUUACGUUGC	-4.82 ± 0.42	-3.05 ± 0.26
CACAAGCAAUAUUACGAAAA	-3.15 ± 0.17	-2.57 ± 0.24
CACAAGCAAUAUUACGACAG	0.0654 ± 0.065	0.61 ± 0.083
CACAAGCAAUAUUACGAGAU	-3.28 ± 0.1	-2.74 ± 0.12
CACAAGCAAUAUUACGAGCC	-4.37 ± 0.42	-2.17 ± 0.4
CACAAGCAAUAUUACGAGUC	-3.71 ± 0.17	-2.26 ± 0.16
CACAAGCAAUAUUACGAUGU	-3.96 ± 0.16	-1.99 ± 0.1
CACAAGCAAUAUUACGAUUA	-2.43 ± 0.13	-0.984 ± 0.12
CACAAGCAAUAUUACGCAGA	-2.72 ± 0.2	-1.43 ± 0.16
CACAAGCAAUAUUACGCAUA	-3.87 ± 0.19	-1.12 ± 0.11
CACAAGCAAUAUUACGCCAU	-4 ± 0.23	-3.48 ± 0.25
CACAAGCAAUAUUACGCCGA	-3.39 ± 0.26	-0.917 ± 0.15
CACAAGCAAUAUUACGCGCU	-4.44 ± 0.27	-2.33 ± 0.18
CACAAGCAAUAUUACGCUCG	-0.562 ± 0.089	-0.27 ± 0.092
CACAAGCAAUAUUACGCUUU	-4.46 ± 0.24	-2.81 ± 0.17
CACAAGCAAUAUUACGGAAA	-3.04 ± 0.19	-2.99 ± 0.2
CACAAGCAAUAUUACGGAGG	-2.14 ± 0.089	-0.826 ± 0.1

Sequence	self-splicing fitness (ln) (30 °C)	self-splicing fitness (ln) (37 °C)
CACAAGCAAUAUUACGGCUC	-2.56 ± 0.18	-1.75 ± 0.16
CACAAGCAAUAUUACGGGGU	-3.61 ± 0.11	-3.18 ± 0.13
CACAAGCAAUAUUACGGUAG	-0.991 ± 0.043	-0.207 ± 0.059
CACAAGCAAUAUUACGGUCA	-2.04 ± 0.1	-0.612 ± 0.1
CACAAGCAAUAUUACGGUGA	-3.09 ± 0.12	-0.931 ± 0.085
CACAAGCAAUAUUACGGUGU	-3.86 ± 0.14	-2.07 ± 0.14
CACAAGCAAUAUUACGUAAA	-3.74 ± 0.21	-2.39 ± 0.23
CACAAGCAAUAUUACGUCAG	-1.25 ± 0.051	-0.508 ± 0.064
CACAAGCAAUAUUACGUGCA	-2.56 ± 0.11	-1.55 ± 0.093
CACAAGCAAUAUUACGUGCU	-3.93 ± 0.18	-2.79 ± 0.15
CACAAGCAAUAUUACGUGGC	-3.15 ± 0.21	-2.64 ± 0.27
CACAAGCAAUAUUACGUUAA	-4.3 ± 0.27	-2.28 ± 0.13
CACAAGCAAUAUUACGUUCA	-1.31 ± 0.084	-1.49 ± 0.089
CACAAGCAAUAUUACGUUCC	-3.75 ± 0.19	-2.42 ± 0.23
CACCAGCAAUAUUACGAAUG	-0.784 ± 0.039	0.236 ± 0.058
CACCAGCAAUAUUACGACAC	-3.07 ± 0.27	-1.36 ± 0.22
CACCAGCAAUAUUACGACCG	-0.000395 ± 0.066	0.12 ± 0.089
CACCAGCAAUAUUACGACUG	-0.642 ± 0.054	0.144 ± 0.073
CACCAGCAAUAUUACGAGAC		-2.02 ± 0.32
CACCAGCAAUAUUACGAUAC	-3.58 ± 0.23	-1.94 ± 0.19
CACCAGCAAUAUUACGCACC	-3.63 ± 0.47	-2.31 ± 0.34
CACCAGCAAUAUUACGCCGA	-2.88 ± 0.19	-1.86 ± 0.21
